Results taken from the DeepSol protein solubility set.

Test: soluble on expression in E. coli; label from the status in PepcDB or PDB records

Sequence	soluble on expression in E. coli
PTLLTARLRWTDKVTLLADPPDKAMGQRSGPWMGEAITALLRAAEREVRLITPYFVPGNDGCDLLTELAQRGVRLSIMTNALSVTDMVLVHGAYRHYRLPLLKAGAELYEFGPPPRPCGRRDLLHTKVFLIDGRQAVVGSLNFDLRSAFMNTELGVLFEEPDLFAELEAMFDRQSAPDEAHRLSLEKGRLRWSVTEEGRAALARFEPDSPPALRAVSWVVGHLPIQ	not soluble
PVPPLPEHGGKVRFGLIPEEFFQFLYPKTGVTGPYVLGTGLILYLLSKEIYVITPETFSAISTIGFLVYIVKKYGASVGEFADKLNEQKIAQLEEVKQASIKQIQDAIDMEKSQQALVQKRHYLFDVQRNNIAMALEVTYRERLHRVYREVKNRLDYHISVQNMMRQKEQEHMINWVEKRVVQSISAQQEKETIAKCIADLKLLSKKAQAQPVM	soluble
PWDSENTIYDKVDQTKRFIEDVVKSFKQNNAILGWILTNEISLVRIPQNDNIFLRWLRELYNYIKRIDDQHLISVGDNVSPFSHNFLRPENVKGIVDYASPHIYQYDQDPIRHSIRYFMILEYDRSAGLPVILEEFG	not soluble
PYIEIFEQPRQRGMRFRYKCEGRSAGSIPGEHSTDNNKTFPSIQILNYFGKVKIRTTLVTKNEPYKPHPHDLVGKDCRDGYYEAEFGPERRVLSFQNLGIQCVKKKDLKESISLRISKKINPFNVPEEQLHNIDEYDLNVVRLCFQAFLPDEHGNYTLALPPLISNPIYDNRAPNTAELRICRVNKNCGSVKGGDEIFILCDKVQKDDIEVRFVLDNWEAKGSFSQADVHRQVAIVFRTPPFLRDITEPITVKMQLRRPSDQEVSEPMDFRYLPD	soluble
QDSTSDLIPAPPLSKVPLQQNFQDNQFHGKWYVVGLAGNRILRDDQHPMNMYATIYELKEDKSYNVTSVISSHKKCEYTIATFVPGSQPGEFTLGNIKSYGDKTSYLVRVVSTDYNQYAVVFFKLAEDNAEFFAITIYGRTKELASELKENFIRFSKSLGLPENHIVFPVPIDQCIDG	soluble
QLERGQEKQALEQAILARTDAPYQSLASVLDNNDWREESVIGVKVQAEAKPEPLPVVLLDNQTFQGKVGYLAYQVVSVGQDPITLALLELGFVEGLRTRDSLPTVTTLTSPTNVTGRLYRKSMNPLSSELMPEMGEGIRVQNLNISELNELLNVELMPAVLQPDNLENWAYPFPWNPLPLTSAKHFGYAVQ	not soluble
QLPCNLSPLNWVGMQHIDLPTVIDTANQTVNTKVDVYVNLPKSSVKGIHMSRLYHLINHLSVLNTMSIKSVLKQMIDSHQDCGTTAAKIVFKFDLLLKRDAIVSTALSGWKSYPVIIEASIINELFNIEYKLDISYSSTCPCSAALSRQIIKNGFKADFSSQNLIPSADIEAWLEQYATLATPHSQRSIATVVVQPFDYAHDINFVDLIDSIENTLKTPTQTAVKRADEQAFAKLNGENLMFVEDAARRLKMLLDQKYKFWSAQVVHQESLHPHDAIAVAISS	not soluble
QLVWGPDLSEKASAQRTRVFVDAARRGEIYDNTGQLLAYTMQARSLTASPKQLRKEIEYTAKIELQDEKEYSSWDENQRKKKIEDKVDSYLEEYSNEIPKIIKDSEASANDIKSKDILKKLKADTSYEVLVRNVDPDVAENIAQKFHGIAADLQQIRQYPNGAVAENVIGKISQDGQGQFGFESSNNSVLSGIDGRKTLDVAASGEVIPGSLRDEVPATNGANVTLTLDLDMQTYVQQQLEQAVSNSGAQSASAVVLDVKTGKVLTMANSGTINPNGDIEKQLKDNKSFENTTISSPFEPGSVAKIITAAGVIEDGKSTPDEVLQVPGSIEMSGVNVRDAWEHGTVGYTTTGIFGKSSNVGTLMLAQRLGEQRFNDLLHRFGIGQNTGIELPVESQGLLPDISQ	not soluble
QMNTVFIKNEGVTEGEIATIGEHTAEISGVSTGTDWTRDYSQSGALRSLLGTVSTEKQGLPAEEVDEYLKKGYARNDRVGTSYLEKQYEDVLQGKKAKSEVVLDNNGKIVSQTPISKGEKGSNLKLTID	not soluble
QPKPEEKLTNNIILKKLQIALNLKADEVLDLLKLVNFRLSKHELSAFFRKPDHKHYRVCKDQVLRNFLQAVQQNLRG	not soluble
QPTAPKDFSSGFWDFNDGTTQGFGVNPDSPITAINVENANNALKISNLNSKGSNDLSEGNFWANVRISADIWGQSINIYGDTKLTMDVIAPTPVNVSIAAIPQSSTHGWGNPTRAIRVWTNNFVAQTDGTYKATLTISTNDSPNFNTIATDAADSVVTNMILFVGSNSDNISLDNIKFTK	soluble
QQGNPNLSSPQPILDTIYKLLSEQEQTLVQMIHEQSLLLNRLPPTLDENSLAPLKSLSQKQITLSGQMNTEMSALDATKKGMILEPTDLAKLFALKQDLQIQFKQLSLLHNEIQSILNPQHSAPKPNVALVLKSQPFPVVISKGKQLGENQLVVLVLTGARSNFHINGPVKATMICDSHPTNKNNPTTPLEMDSQPIYPATLTAHFPLKFLAGTRKCSVNLKFGVNIRDLDNVTTTVESDASNPFVVITNECQWEGSAGVLLKKDAFDGQLEITWAQFINTLQRHFLIATKQDPVRPKRPLSSYDLKYIQTHFFGNRSIIHQQDFDKFWVWFGKSMQTLRYQRHISTLWQEGIIYGYMGRQEVNDALQNQDPGTFIIRFSERNPGQFGIAYIGVEMPARIKHYLVQPNDTAAAKKTFPDFLSEHSQFVNLLQWTKDTNGAPRFLKLHKDTALGSFAPKRTAPVPVGGYEPLNS	soluble
QSELTQPRSVSGSPGQSVTISCTGTSRDVGGYNYVSWYQQHPGKAPKLIIHDVIERSSGVPDRFSGSKSGNTASLTISGLQAEDEADYYCWSFAGSYYVFGTGTDVTVLGQPKANPTVTLFPPSSEELQANKATLVCLISDFYPGAVTVAWKADGSPVKAGVETTKPSKQSNNKYAASSYLSLTPEQWKSHRSYSCQVTHEGNTVEKTVAPT	soluble
QSQSNQATPSKVVSGEVNAASFAQFSNAFIDDLWQLSPTWALYSGKHVNDGYLEIPDEAGRVKTLAFVKAQQAKLKQFELKSLTSNETIDYHLIDNLLSSMAWDITRFKSWQWDPSSYNVAGGFAQIINENFAPLDDRLRSVLARMENIPAYYAAARGNISQPTLEHTELAVLQNQGAFSVFSDDLLKQVADSGLSDAEKALFKTRFDIASKAINEHISWLNAQVSQLKKEGARSFRIGEELYEQKFAFDIQAGMTAKQLYQKAMVDKDRVQGEMAKITDKLWPKYFTTPKPSDNKIAIRQLIDKLSTKHVKRDDFVSEVRKQIPELIEFVNQKNIVTLDPKKPLVVRETPEYMRGYAGASISAPGPYDKLGNTYYNVTPLDGMSNESAESYLREYNHWILQILNIHEAIPGHYTQLVYSNESPSLVKSLFGNGAMVEGWAVYTERMMLEEGYGNFEPEMWLMYYKWNLRVICNTILDYSIHVKGMTEEQAIALMMDEAFQQRAEAEGKWRRATLSQVQLTSYYSGYREIYDFREEYKQLKGKDFDLKAFHEKFLSYGSAPVKYIRQLMLE	soluble
QTIFRVQTPYTHNGYMKTECYAFDFAPDRTLRVLAEAAKVSYKAGKQSESDRKLLGDFLNFCPIISIEGSRMKPYDVNTMLGQLKRAQIEKVVQDGFENGALYNDELLKLTEVELHDFDELKGIIGKTKAMAKSGDIDINHQGLTHEQYEEKERLEKRKKKGLTPEEKKRLDELKAKGDQRREAISILRGISIRMPLMLYGAEMKDEDKELTIDNFANLVDEQSWQEFMPRGVTKAVFRRFKRYYDPDIFREAGKRIREMARMADKFTIEERIGRIASIFSTFRNPDKETVLTPWRVVNMHLGDSIGGYCFMSEDFSTPIALPRYIEHQGITNEVFHPKSIILEINSKSGLYPLYAAYNIYRTRVEEAREKYGDVTRAFALQLWDRTLEENIFVVCKTPMARYITMRTLRGFRDVVTHTEHYPDLIENITSQPDSVVNMLRSGKRFWKINNDENMKIDAIIGNPPYQVMNQGKGNGSDPIYHKFFDLAMVLAPQGTLIHPARFLFNAGKTPKEWNEKMLSDKHYRVVDYWPNSAEVFPTVDVKGGIATSYWNKKMILGPIGMFSAFDELHHILYKVEQTNPLPFSNLVAPRELYRITDELYQEHPDLNGRQSAGHKYSFGANIFDVFPEVFFDEYPQGREEKMACIYGRANKQRCYKWCKRSYITHPENFAKYKVIIPKTNGSGAIGE	not soluble
QTINKIDLQALEESQIDWAKYQPHQAVVLKARKQLRDHQQTALNATAAGLNDAERGKLIMACGTGKTFTSLKIAERLAGKGKRVLFLVPSLSLLSQTLTEWTQESETPLHSFAVCSDSDVGKKRKADEDTVQVFTHELRYPATTKADRLAAEMLKRHDAEHMSVVFSTYHSIDVISRAQHEYDLAAFDLVICDEAHRTTGATFDDDDESTFVRIHDVDYIRAIKRLYMTA	not soluble
QVKLQQSGGGLVKPGASLKLSCVTSGFTFRKFGMSWVRQTSDKCLEWVASISTGGYNTYYSDNVKGRFTISRENAKNTLYLQMSSLKSEDTALYYCTRGYSSTSYAMDYWGQGTTVTVSGIEGR	soluble
QVQLLQPGAELVKPGASVKLSCKASGYTFTSYWMYWVKQRPGQGLEWIGEIDPSDSYTNYNQNFKGKATLTVDKSSSTAFMQLSSLTSQDSAVYFCARSPHYYGTTYNYPMDYWGQGTSVTVSSAKTTPPSVYPLAPGCGDTTGSSVTLGCLVKGYFPESVTVTWNSGSLSSSVHTFPALLQSGLYTMSSSVTVPSSTWPSQTVTCSVAHPASSTTVDKKLEP	soluble
QVQLQESGGGLVQPGGSLRLSCAASGFTFSNSAMSWVRQAPGKGLEWVSSISGSGGNTYSADSVKGRFTISRDNAKNSLYLQMNSLRAEDTAVYYCARDWYGMDVWGQGTTVTVSS	soluble
QVQLQESGPGLMKPSETLSLTCSVSGDSIRSDYWSWIRKPPGKGLEYIGYVSYSGSTYYNPSLKSRVTISVDTSKNRFSLKLNSVTAADTAVYYCARWDGDYWGQGILVTVSS	soluble
QVQLQQPGAELVKPGTSVKLSCKASGYNFTSYWINWVKLRPGQGLEWIGDIYPGSGITNYNEKFKSKATLTVDTSSSTAYMQLSSLASEDSALYYCAGQYGNLWFAYWGQGTLVTVS	soluble
QYAPQTQSGRTSIVHLFEWRWVDIALECERYLGPKGFGGVQVSPPNENIVVTNPSRPWWERYQPVSYKLCTRSGNENEFRDMVTRCNNVGVRIYVDAVINHMCGSGAAAGTGTTCGSYCNPGSREFPAVPYSAWDFNDGKCKTASGGIESYNDPYQVRDCQLVGLLDLALEKDYVRSMIADYLNKLIDIGVAGFRIDASKHMWPGDIKAVLDKLHNLNTNWFPAGSRPFIFQEVIDLGGEAIKSSEYFGNGRVTEFKYGAKLGTVVRKWSGEKMSYLKNWGEGWGFMPSDRALVFVDNHDNQRGHGAGGSSILTFWDARLYKIAVGFMLAHPYGFTRVMSSYRWARNFVNGEDVNDWIGPPNNNGVIKEVTINADTTCGNDWVCEHRWREIRNMVWFRNVVDGQPFANWWDNGSNQVAFGRGNRGFIVFNNDDWQLSSTLQTGLPGGTYCDVISGDKVGNSCTGIKVYVSSDGTAQFSISNSAEDPFIAIHAESKL	soluble
